The record followed here is patent US8586034B2, “Cytomegalovirus disintegrin-like peptides” (priority 2004, dated 2013).

One data set has as its target T1, β1 integrin (Homo sapiens, UniProt P05556).
T1 construct: endogenous in cells; host or cells: Normal Human Dermal Fibroblasts (NHDF), detergent lysate
Description: Integrin co-immunoprecipitation assay, β1. It counts as binding. The following applies: human fibroblast lysates, nickel beads. Here is the method: (§1) A T-175 flask of NHDFs was grown to complete confluence, washed three times in MES buffer and lysed in 1 mL MES buffer+1% TX-100 (a detergent). Lysate was spun at 10,000 g for 10 minutes to remove cell debris. Cell lysate (350 μL) was then incubated with 20 μg gBDLD for 4 hours at 4° C. The lysate+gBDLD mixture was then incubated with 50 μL Ni beads overnight at 4° C. Nickel beads were then washed three times and protein eluted by boiling and then adding reducing SDS-PAGE buffer. Proteins were separated by SDS-PAGE and Western blotted for β1 integrin (Chemicon-1965) or β3 (Chemicon) as previously described.^48
(§2) To identify the cellular receptor for gBDLD we performed co-immunoprecipitation studies. Briefly, gBDLD was incubated with human fibroblast lysates and pulled down with nickel-conjugated agarose beads.
(§3) Because gBDLD contains a known β1 integrin binding motif, gBDLD bound to its cellular receptor was isolated by SDS-PAGE and then Western blotted for either β1 or β3 integrin. The resulting gels are shown in FIG. 10 (β1) and FIG. 11 (β3).

Data set [1] is described as follows: Solubility of purified gBDLD in dialysis buffer. It counts as physicochemical. The following applies: 55 mM MES, pH 5.5, 300 mM NaCl. The protocol:
DNA sequence corresponding to amino acids 57-146 of HCMV AD 169 glycoprotein B disintegrin-like domain (“gBDLD”) was cloned into the bacterial expression vector pET-28a containing an N-terminal His-Tag with thrombin cleavage site and kanamycin resistance. (Commercially available from Novagen, San Diego, Calif.) gBDLD production was induced by the addition of 1 mM isopropyl-βD-thiogalactopyranoside (IPTG). E. coli Tuner strain containing pET-28a:gBDLD was grown at 37° C. in Luria-Bertani medium containing kanamycin (50 μg/mL) to an optical density at 600 nm of approximately 0.6. IPTG (1 mM) was added and the plates were incubated continuously for 4 h at 37° C. Cells were harvested by centrifugation at 4000 r/min for 10 min and pellets were resuspended in 1% Triton X-100/Ni-NTA buffer (300 mM NaCl/50 mM Tris-HCL pH 7.9) and lysed by 3×60 s bursts of sonication. The lysate was centrifuged at 15,000 r/min for 15 minutes at 4° C. The 8M urea/Ni-NTA fraction was then poured into a chromatography column containing nickel-nitriloacetic acid agarose (Ni-NTA) beads at 4° C. and allowed to flow through. […] Fractions containing protein were determined by measuring the absorbance of each fraction at 214 nm. Fractions that corresponded to absorption peaks were analyzed by sodium dodecyl sulfate polyacrylamide electrophoresis (SDS-PAGE) to determine the size of the protein. […]

The subject of a further data set is HCMV-GFP. Briefly: HCMV infectivity assay (HCMV-GFP, flow cytometry). The class given is cell-based, Human cytomegalovirus. The following applies: human fibroblasts. The protocol: NHDFs were washed three times with MES buffer followed by the addition of gBDLD for 60 minutes at 37° C. Cells were then washed twice with MES buffer, three times with PBS and inoculated with HCMV-GFP (MOI=0.5) in serum-free DMEM. After 60 minutes, virus was removed and a 30 second, low-pH citrate wash was performed to remove extracellular virus. Twenty-four hour, post-infection cells were harvested and flow cytometry was performed to assay for GFP-positive cells.
FIG. 9 is a graph depicting the results of an assay to determine if gBDLD blocks NHDF cells from infection with HCMV. The infectivity assay was performed as described in the earlier examples. Briefly, gBDLD or BSA was added to human fibroblasts for 60 minutes. Cells were then washed, followed by HCMV-GFP challenge for 60 minutes. Cells were then citrate washed to remove any extracellular virus and incubated overnight. Flow cytometry was performed to assay for GFP positive versus total cells. As is readily observed from FIG. 9, gBDLD exerts a dose-dependent inhibition of HCMV infectivity in the cells tested.
(A flow cytometer gives signals particle by particle.)

The target of data set [2] is Normal human dermal fibroblasts. Briefly: Protein binding assay, gBDLD to fibroblasts (His-tag ELISA). Here is the method: Normal human dermal fibroblasts were chilled to 4° C., washed three times with cold MES buffer and blocked with 1 mg/mL bovine serum albumin (BSA) for 30 minutes at 4° C. Unbound BSA was removed with cold MES washes (×4). The indicated amounts of gBDLD were added to each well for 90 minutes at 4° C. Cells were then washed three times with cold MES, twice with cold (phosphate-buffered saline (PBS) and fixed with 3% paraformaldehyde. An ELISA was then performed probing with anti-His rabbit polyclonal antibody (Santa Cruz Biotechnology, Santa Cruz, Calif.) and anti-rabbit HRP (Pierce). Absorbance was measured at 405 nm.
FIG. 7 is a graph depicting the results of a gBDLD binding assay (performed as described previously). Here, binding was measured by absorbance at 405 nm. […] To generate the data, human fibroblasts were incubated with gBDLD for the indicated times at 4° C. Cells were then washed, fixed and an ELISA was performed probing for the gBDLD […] his-tag. […]
FIG. 8 is a graph depicting gBDLD binding to human fibroblasts. As is readily apparent from FIG. 8, this binding is dose-dependent and saturable. […] After three IVIES washes and two PBS washes, cells were fixed in 3% paraformaldehyde and a His-tag ELISA was performed to quantitate gBDLD bound to cells.
On the technique in general: ELISA stands for enzyme-linked immunosorbent assay.

In a further data set the test system is NHDF cells. Briefly: Cytoskeletal rearrangement, actin staining with phalloidin. It counts as cell-based, human. Particulars: compared to buffer alone. The source says: β1 integrins are known inducers of broad signal transduction events. […] To test the role of gBDLD in mediating signaling events, we stimulated NHDF cells with buffer alone, gBDLD, or a known cytoskeletal reorganizer (EGF), followed by actin staining with phalloidin.

The subject of another data set is diI-labeled HCMV. The class given is cell-based, Human cytomegalovirus. The following applies: gBDLD or BSA 320 μg/mL, soluble heparin 50 μg/mL; 24 hours post-infection.
The next data set addresses T2, β3 integrin (Homo sapiens, UniProt P05106).
T2 construct: endogenous in cells; host or cells: Normal Human Dermal Fibroblasts (NHDF), detergent lysate
T2 sequence (P05106 27-788): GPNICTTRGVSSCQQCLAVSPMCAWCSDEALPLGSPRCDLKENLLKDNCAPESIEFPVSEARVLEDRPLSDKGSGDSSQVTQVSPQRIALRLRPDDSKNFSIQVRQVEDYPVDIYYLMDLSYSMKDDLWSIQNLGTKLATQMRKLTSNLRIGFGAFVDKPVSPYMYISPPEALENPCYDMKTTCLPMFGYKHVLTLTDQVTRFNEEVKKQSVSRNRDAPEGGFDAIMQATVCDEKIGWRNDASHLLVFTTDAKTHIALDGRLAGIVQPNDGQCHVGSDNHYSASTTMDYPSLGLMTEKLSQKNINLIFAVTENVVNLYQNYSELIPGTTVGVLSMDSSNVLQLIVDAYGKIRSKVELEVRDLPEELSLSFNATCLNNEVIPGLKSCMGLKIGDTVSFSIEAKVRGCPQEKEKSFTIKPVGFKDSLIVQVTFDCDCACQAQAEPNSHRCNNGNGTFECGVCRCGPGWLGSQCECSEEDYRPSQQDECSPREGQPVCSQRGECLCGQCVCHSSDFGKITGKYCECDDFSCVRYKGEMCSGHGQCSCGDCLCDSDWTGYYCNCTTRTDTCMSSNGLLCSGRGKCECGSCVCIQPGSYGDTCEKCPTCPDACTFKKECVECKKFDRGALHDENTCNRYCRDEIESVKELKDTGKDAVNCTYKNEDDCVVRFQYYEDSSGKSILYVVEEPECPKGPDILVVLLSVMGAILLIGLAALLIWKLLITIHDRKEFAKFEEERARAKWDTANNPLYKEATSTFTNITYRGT
Description: Integrin co-immunoprecipitation assay, β3. Particulars: human fibroblast lysates, nickel beads. The class given is binding. The protocol: as §1, §2, §3

T1 sequence (P05556 21-798): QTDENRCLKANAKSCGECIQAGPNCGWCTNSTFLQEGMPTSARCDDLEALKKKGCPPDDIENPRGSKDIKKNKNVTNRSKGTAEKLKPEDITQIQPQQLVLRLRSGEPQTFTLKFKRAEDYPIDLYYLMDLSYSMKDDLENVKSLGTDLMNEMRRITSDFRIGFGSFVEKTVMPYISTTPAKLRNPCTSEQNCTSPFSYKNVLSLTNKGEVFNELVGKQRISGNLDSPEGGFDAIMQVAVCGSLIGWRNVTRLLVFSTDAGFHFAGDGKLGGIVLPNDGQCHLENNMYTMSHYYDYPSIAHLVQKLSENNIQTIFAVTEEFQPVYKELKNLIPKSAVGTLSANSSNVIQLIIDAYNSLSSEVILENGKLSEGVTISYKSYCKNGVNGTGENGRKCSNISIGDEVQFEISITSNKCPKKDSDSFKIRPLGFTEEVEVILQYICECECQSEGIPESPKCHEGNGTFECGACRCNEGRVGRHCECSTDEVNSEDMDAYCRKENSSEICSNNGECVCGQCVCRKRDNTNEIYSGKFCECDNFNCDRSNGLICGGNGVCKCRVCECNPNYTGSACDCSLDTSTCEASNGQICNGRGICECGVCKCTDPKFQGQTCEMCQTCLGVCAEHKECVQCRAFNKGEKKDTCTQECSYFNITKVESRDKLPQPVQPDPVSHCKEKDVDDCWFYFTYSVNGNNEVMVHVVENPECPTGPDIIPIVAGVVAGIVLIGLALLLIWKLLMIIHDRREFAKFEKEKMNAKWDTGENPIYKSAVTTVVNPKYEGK

B1: gBDLD: amino acids 57-146 of HCMV AD 169 glycoprotein B disintegrin-like domain, His-tagged, expressed in E. coli (protein)
chain: VTSSEAVSHRANETIYNTTLKYGDVVGVNTTKYPYRVCSMAQGTDLIRFERNIICTSMKPINEDLDEGIMVVYKRNIVAHTFKVRVYQKV
modifications: left off: small tags and cut ends
notes: amino acids 57-146 of HCMV AD 169 glycoprotein B disintegrin-like domain, His-tagged, expressed in E. coli
With B1, the “interaction with β1 integrin (pull down, Western blot)” value with β1 integrin is given as “interacts”. In data set [1], the Solubility entry is “approximately 1 mg/mL”. For the same molecule, the “IC50 for HCMV neutralization” value in the data set with HCMV-GFP turned out to be 20.5 µg/mL. In addition, the IC50 in the data set with HCMV-GFP (read-out: IC50 for HCMV neutralization) came to 1960 nM. Also, the “kinetics of gBDLD binding to human fibroblasts” value in data set [2] (4° C., ELISA for his-tag) is “rapid kinetics”. In addition, the “concentration at which gBDLD binding to fibroblast monolayers reached saturation” value in data set [2] (60 minutes, after BSA block) was determined as 12.5 µg/mL. Moreover, in the data set with NHDF cells, the “reorganization of the cytoskeleton” value was “triggered a dramatic reorganization of the cytoskeleton”. Besides, the “HCMV fusion (dye transfer) and gene expression” value in the data set on diI-labeled HCMV was “complete block”. The “interaction with β3 integrin (pull down, Western blot)” value in the data set with β3 integrin was “does not interact”.

B2: EGF: known cytoskeletal reorganizer (protein, UniProt P01133 23-1207, looked up)
Pro-epidermal growth factor: PQHWSCPEGTLAGNGNSTCVGPAPFLIFSHGNSIFRIDTEGTNYEQLVVDAGVSVIMDFHYNEKRIYWVDLERQLLQRVFLNGSRQERVCNIEKNVSGMAINWINEEVIWSNQQEGIITVTDMKGNNSHILLSALKYPANVAVDPVERFIFWSSEVAGSLYRADLDGVGVKALLETSEKITAVSLDVLDKRLFWIQYNREGSNSLICSCDYDGGSVHISKHPTQHNLFAMSLFGDRIFYSTWKMKTIWIANKHTGKDMVRINLHSSFVPLGELKVVHPLAQPKAEDDTWEPEQKLCKLRKGNCSSTVCGQDLQSHLCMCAEGYALSRDRKYCEDVNECAFWNHGCTLGCKNTPGSYYCTCPVGFVLLPDGKRCHQLVSCPRNVSECSHDCVLTSEGPLCFCPEGSVLERDGKTCSGCSSPDNGGCSQLCVPLSPVSWECDCFPGYDLQLDEKSCAASGPQPFLLFANSQDIRHMHFDGTDYGTLLSQQMGMVYALDHDPVENKIYFAHTALKWIERANMDGSQRERLIEEGVDVPEGLAVDWIGRRFYWTDRGKSLIGRSDLNGKRSKIITKENISQPRGIAVHPMAKRLFWTDTGINPRIESSSLQGLGRLVIASSDLIWPSGITIDFLTDKLYWCDAKQSVIEMANLDGSKRRRLTQNDVGHPFAVAVFEDYVWFSDWAMPSVMRVNKRTGKDRVRLQGSMLKPSSLVVVHPLAKPGADPCLYQNGGCEHICKKRLGTAWCSCREGFMKASDGKTCLALDGHQLLAGGEVDLKNQVTPLDILSKTRVSEDNITESQHMLVAEIMVSDQDDCAPVGCSMYARCISEGEDATCQCLKGFAGDGKLCSDIDECEMGVPVCPPASSKCINTEGGYVCRCSEGYQGDGIHCLDIDECQLGEHSCGENASCTNTEGGYTCMCAGRLSEPGLICPDSTPPPHLREDDHHYSVRNSDSECPLSHDGYCLHDGVCMYIEALDKYACNCVVGYIGERCQYRDLKWWELRHAGHGQQQKVIVVAVCVVVLVMLLLLSLWGAHYYRTQKLLSKNPKNPYEESSRDVRSRRPADTEDGMSSCPQPWFVVIKEHQDLKNGGQPVAGEDGQAADGSMQPTSWRQEPQLCGMGTEQGCWIPVSSDKGSCPQVMERSFHMPSYGTQTLEGGVEKPHSLLSANPLWQQRALDPPHQMELTQ
modifications: Pro-epidermal growth factor
notes: known cytoskeletal reorganizer
Take B2: the “reorganization of the cytoskeleton” value in the data set on NHDF cells was “triggered a dramatic reorganization of the cytoskeleton”.

By IC50 is commonly meant the concentration that inhibits the measured activity by half.
